Source: the RNAGym collection of RNA variant scans (doi:10.1073/pnas.2313332121)
This sample holds only a part of the variants without activity.

B1: TPR 5TU (parent)
chain: GGAUCUUCUCGAUCUAACAAAAAAGACAAAUCUGCCACAAAGCUUGAGAGCAUCUUCGGAUGCAGAGGCGGCAGCCUUCGGUGGCGCGAUAGCGCCAACGUUCUCAACUAUGACACGCAAAACGCGUGCUCCGUUGAAUGGAGUUUAUCAUG

Variants of: B1
Experiment: polymerase ribozyme fitness, log enrichment relative to wild type (log ratio); higher = more active; in vitro selection for triplet polymerase activity
Summary of the method: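 Streptavidin-bead capture of gel-excised extended constructs, followed by RT-PCR, closed a single triplicate in vitro selection round. That round began by annealing PCR-built, transcribed mutant libraries of each subunit of a heterodimeric triplet polymerase ribozyme with a biotinylated primer, the partner subunit and triplets, then incubating them frozen at −7 °C. After Illumina sequencing of inputs and outputs, genotypes needed ≥10 input reads and ≥1 read per output. Fitness is the base-2 logarithm of genotype enrichment over wild-type enrichment, using inverse-variance-weighted replicate averages.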

| Variant | polymerase ribozyme fitness (log ratio) |
| --- | --- |
| C5A A24G A64C G68A C76U C79U G83C U90A C95G A115U A138G | ≤ -4.2 |
| A60C G62C G83U G133A | ≤ -4.2 |
| U45A G58A G59C A60G G133A | ≤ -4.2 |
| C51A G74A | ≤ -4.2 |
| A21U C57A C76U C116A | 0.702 |
| G46A C85G A106C C125A | ≤ -4.2 |
| A47C G83C G112C | ≤ -4.2 |
| C95A | 0.441 |
| U104G G126C | 0.0565 |
| C10U C35U | -3.04 |
| C85G C87U U145A | -2.77 |
| G68A G92C | -4.16 |
| A52C G94A | -0.384 |
| U44A G80A A138U A150G | ≤ -4.2 |
| C8A A22G U56A C57U C85G | ≤ -4.2 |
| G48U G83A U134A G136A | -2.44 |
| A3G G84C | -1.98 |
| C93U A97U C125A | -2.13 |
| C10G U109C A137C | ≤ -4.2 |
| U33A C85U | -3.79 |
| A12U C14A A24U U56A C85U C99U G141A | ≤ -4.2 |
| A47C G59A | 0.309 |
| A17G G58A G59C C69U C95U U104A | -3.74 |
| U61A U101G | -1.11 |

| Variant | polymerase ribozyme fitness (log ratio) |
| --- | --- |
| U44A U104A A115G | ≤ -4.2 |
| A3C C14U A16G G59A C87A | ≤ -4.2 |
| A12U A26C C35A U55C G59C C76A C93A U111C A138G U144A | ≤ -4.2 |
| A26U C51U A52U C54G G86U C99A A107C C123G | ≤ -4.2 |
| A52G G71U | -2.58 |
| A41G G58C U61C U82G C87G U104G C118G G141U | ≤ -4.2 |
| A39C A91U G94A G133C A142U U145A U148A | ≤ -4.2 |
| C51G U56A A89U A119C C129U | ≤ -4.2 |
| A23G U31A G58C G70C C93G A107G | ≤ -4.2 |
| U6G G48C A52G C96A A121U G140A | ≤ -4.2 |
| G81C | -0.471 |
| A20U A49G A66C A73U C79U A106U A107C | ≤ -4.2 |
| A28U U55A | -4.13 |
| G42C C99U | ≤ -4.2 |
| C32A C85U A142U | ≤ -4.2 |
| A21C G94C C116U | 0.209 |
| C54G G94U C123U G133C | -2.38 |
| C99U G136A | 0.0423 |
| A66C G92C C114U | ≤ -4.2 |
| G84A A98G C105A | -1.05 |
| U53A A89U | -0.481 |
| A115U | -1.48 |
| A21U C99U C116U C125U | -1.64 |
| U9A A26U A47C A49G G84A G86C | ≤ -4.2 |

| Variant | polymerase ribozyme fitness (log ratio) |
| --- | --- |
| C75A C95U A98U C103U U145G U146G | ≤ -4.2 |
| C8U A28G G34A C36U G86U A91G A110U | -4.19 |
| U45A A66U G71A | ≤ -4.2 |
| A30C C93U A106U C131A A142C | -4.12 |
| U55G C93U U101G | -0.936 |
| U82A C95A A97C C103U U134A | -3.46 |
| A12U U144G | 0.918 |
| C79A A91U A107C G124C U144C | ≤ -4.2 |
| G83A C93U | -1.36 |
| A12G U45A A52U U55A C79G G81A A98G | ≤ -4.2 |
| A19U A21U G94A | -1.09 |
| A37G C51U C72U C95A A138U G143U | ≤ -4.2 |
| A19U G48A | -1.05 |
| U44G G46C A60C U61A C95U | ≤ -4.2 |
| A20U A29C A30G C54A G67C G80U C93U G94A A97C C99U | ≤ -4.2 |
| A41G C93A G124U | -1.5 |
| A21G A60G G68U C93G C95G U139C | ≤ -4.2 |
| A22C A24G A26U A52G G80A C85G G94U C123U | ≤ -4.2 |
| U134A G141U | -2.41 |
| G58U C87U C125G | -0.741 |
| U4G A19C G58U C69U C96A | -0.414 |
| G46A C85A | -2.16 |
| G86U U90G C103A A119C A121C A138C | ≤ -4.2 |
| A39G A60C G67U C99G G143C | ≤ -4.2 |

| Variant | polymerase ribozyme fitness (log ratio) |
| --- | --- |
| G42A A52C C54A U56C G94C | ≤ -4.2 |
| U4A G83U C95G G124U U148C | ≤ -4.2 |
| A21U G62C A66C G83U A91U G152A | ≤ -4.2 |
| G86U G88A A150C | ≤ -4.2 |
| G42A G74C G83C A107U G112C | ≤ -4.2 |
| C38A C57G U77G C79U A91G | ≤ -4.2 |
| C10G A26U A28C C87A G88U A91C U145C | ≤ -4.2 |
| G84A C93U | -1.83 |
| A30U U61G G68A C93U C103G A147C | ≤ -4.2 |
| A39U U45G C85A A91C G92C | ≤ -4.2 |
| C10U U45A C99A | ≤ -4.2 |
| A47C C54U U55A U101C | 0.0498 |
| G59A A115G G140A | ≤ -4.2 |
| G58C G59C C96U C131A | -4.15 |
| C14U A20U A24U G42A A49C C57A A60C U104G C114A A115C | ≤ -4.2 |
| C18U U53A C54U U56A G70A C85U C116U G141C | ≤ -4.2 |
| U15G C85U | -0.0947 |
| G34U C36G G59C U148C | ≤ -4.2 |
| A49G G92U | 0.21 |
| U7A C14U U31A C57G U61A A89U U90C C99A A115U A122C | ≤ -4.2 |
| C43U G58A U90C C132A G143U | ≤ -4.2 |
| G58U A142C | -0.408 |
| A40U C99U G117C | -0.515 |
| C5G A21U A49G C93A A137U | ≤ -4.2 |

| Variant | polymerase ribozyme fitness (log ratio) |
| --- | --- |
| U13G C36A C85U A115U U139C | ≤ -4.2 |
| A39C A52G G70A C99G G100A U144A | ≤ -4.2 |
| U101G G136A | 0.652 |
| A21C C43U C79G G83U C87G A91G A119U G141A | ≤ -4.2 |
| C18G C54U U78C | -2.12 |
| C38A C87A | ≤ -4.2 |
| A41U U56A C85A | -2.38 |
| A39G G59A C116U U144C | -4.19 |
| A24U A52U C85U | -1.43 |
| A29G A37U A47U U55A G84U A89G A120C G140C U144G | ≤ -4.2 |
| C5U A16C C51U | -1.73 |
| U55A G58U G84A C103U A120C | -0.0961 |
| A41C G58A G68A U104C A113C A147C | ≤ -4.2 |
| C32U C103U | -2.66 |
| A40C G92U G94A | 0.834 |
| G70A G83U C105A A147C U148A | ≤ -4.2 |
| C38U U78C C95U | -0.556 |
| A3U C51U C95U | -1.09 |
| A37C A60C C69U C85A U146G | -3.76 |
| A22U C123G | -0.0344 |
| A12U U56A | -0.683 |
| A29U C63U C114U | ≤ -4.2 |
| C14G C63U G67C U77A C85A G124C | ≤ -4.2 |
| U13G A52G | -1.06 |

| Variant | polymerase ribozyme fitness (log ratio) |
| --- | --- |
| A26C U56A A60U U82G | -2.45 |
| G58U U82A G84U U146G | -2.04 |
| U53G G62C C85U U109C | ≤ -4.2 |
| C54A U55G G83A U102C C108G G126A | ≤ -4.2 |
| U78C C95U C108U C116U | ≤ -4.2 |
| C54A U55A C57A | 0.336 |
| A47G C87U C99U | -1.24 |
| C35A G83C | -3.93 |
| A73G C85U C96G C108G U127G G136C | ≤ -4.2 |
| C27U A28G A60G A98U G100A U135G | ≤ -4.2 |
| C14U C32G U33G A47U U53A G74A C95G A106G U135A | ≤ -4.2 |
| G46U G84C C87G A150G | ≤ -4.2 |
| C8A U13G A21G A28G G68U G81A C118G G143U | ≤ -4.2 |
| A23U A37U A97U U111C | ≤ -4.2 |
| G11U U90A A119U G133C | ≤ -4.2 |
| G48A G59A A60G A97G | -3.58 |
| G25U A89C | -3.41 |
| U7G A30C C32G C51U U144A | ≤ -4.2 |
| G81A C103A | -1.13 |
| U55A U77C C105A A107U U127G A137C | ≤ -4.2 |
| C99A C118G A119C | -0.582 |
| A26C A91G A121C U139C | ≤ -4.2 |
| A47U G80A A91C | ≤ -4.2 |
| C36U C38A A91U C103A C116A | ≤ -4.2 |

| Variant | polymerase ribozyme fitness (log ratio) |
| --- | --- |
| A24G A29C A37G G46U C57U C76U A122U A138G U144G U151C | ≤ -4.2 |
| A39U A47U C96U A122G G124A | -3.16 |
| A37C U55A C96U A113U A137U | -4.18 |
| C43U G84U A113U | ≤ -4.2 |
| U33A A91C | ≤ -4.2 |
| A20C U61G C75U U146A | -2.77 |
| G11U A17G C57U C63U G81A U82G | -1.64 |
| A97U U139C G140C U145G | -3.85 |
| A29G A47C U55G | ≤ -4.2 |
| A73U C85U G117U | -0.841 |
| G68U U101C | -4.07 |
| C79U C85G U101G | ≤ -4.2 |
| A29G G94U A97G C149U | ≤ -4.2 |
| U56C C57U A89U C95G A137C | -4.07 |
| A21G C38U | 0.63 |
| A17G C36G C79A C95U A97U G117U G126U | -4.08 |
| G58A C63G G86U G94C A137C G141U U151C | ≤ -4.2 |
| G50C C57G C95A A115C | ≤ -4.2 |
| G50A C69U A121U A137C | ≤ -4.2 |
| A30U C87G C116A G141A | ≤ -4.2 |
| C43U A73G | ≤ -4.2 |
| G42U U45A U56A G83A A121U | ≤ -4.2 |
| C79U G140C | -4.1 |
